The results in this text go back to the supplement of paper PMC5998384.

For data set [1], the system named is HeLa Kyoto. Briefly: solubility in G1/S (NP-40 vs SDS abundance) (log2 ratio); higher = more soluble. Conditions: cell cycle stage: G1/S.
The test system of data set [2] is HeLa Kyoto. Briefly: melting temperature (median over replicates), in situ; higher = more thermally stable.
In data set [3] the test system is HeLa Kyoto. The data set is described as follows: solubility change mitosis vs G1/S (difference of NP-40 vs SDS log2 ratios) (log2 ratio difference); higher = more soluble in mitosis.
Data set [4] deals with HeLa Kyoto. Briefly: thermal stability score vs G1/S (z-score of summed log2 fold changes over temperatures); higher = more thermally stable than in G1/S.
Setting [5] is: cell cycle stage: early G1 (4.5 h after nocodazole release).
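Throughout, for melting temperature (median over replicates), in situ: HeLa Kyoto cells synchronized by double thymidine or nocodazole block, proteins quantified by TMT10plex mass spectrometry, three independent biological replicates.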
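Throughout, for solubility change mitosis vs G1/S (difference of NP-40 vs SDS log2 ratios): synchronized HeLa Kyoto cells (double thymidine block for G1/S, nocodazole release for mitosis), protein amounts in NP-40 versus SDS lysates quantified by mass spectrometry, three biological replicates.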
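Throughout, for solubility in G1/S (NP-40 vs SDS abundance): HeLa Kyoto cells arrested at G1/S by double thymidine block, proteins quantified by TMT10plex mass spectrometry in mild NP-40 versus SDS extracts, three biological replicates.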
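Throughout, for thermal stability score vs G1/S (z-score of summed log2 fold changes over temperatures): synchronized HeLa Kyoto cells, proteins quantified by TMT10plex mass spectrometry, three biological replicates, mitosis taken 0.5 h after nocodazole release, G1/S directly after double thymidine block.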

As to “MAELDPFGAPAGAPGGPALGNGVAGAGEEDPAAAFLAQQESEIAGIENDEAFAILDGGAPGPQPHGEPPGGPDAVDGVMNGEYYQESNGPTDSYAAISQVDRLQSEPESIRKWREEQMERLEALDANSRKQEAEWKEKAIKELEEWYARQDEQLQKTKANNRVADEAFYKQPFADVIGYVTNINHPCYSLEQAAEEAFVNDIDESSPGTEWERVARLCDFNPKSSKQAKDVSRMRSVLISLKQAPLVH [CLTA]”, in the data set with HeLa Kyoto [1], the “solubility in G1/S (log2)” value turned out to be 0.31. The sequence also registered a melting temperature in the data set on HeLa Kyoto [2] (cell cycle stage: G1/S) of 54.7 °C. Besides, in the data set with HeLa Kyoto [3], the “solubility change mitosis (log2)” value was found to be 0.362. Also, the thermal stability score in the data set with HeLa Kyoto [4] (setting [5]) is -6.01; in the data set with HeLa Kyoto [4] (cell cycle stage: mitosis), -4.14.
On to “MAPSTPLLTVRGSEGLYMVNGPPHFTESTVFPRESGKNCKVCIFSKDGTLFAWGNGEKVNIISVTNKGLLHSFDLLKAVCLEFSPKNTVLATWQPYTTSKDGTAGIPNLQLYDVKTGTCLKSFIQKKMQNWCPSWSEDETLCARNVNNEVHFFENNNFNTIANKLHLQKINDFVLSPGPQPYKVAVYVPGSKGAPSFVRLYQYPNFAGPHAALANKSFFKADKVTMLWNKKATAVLVIASTDVDKTGASYYGEQTLHYIATNGESAVVQLPKNGPIYDVVWNSSSTEFCAVYGFMPAKATIFNLKCDPVFDFGTGPRNAAYYSPHGHILVLAGFGNLRGQMEVWDVKNYKLISKPVASDSTYFAWCPDGEHILTATCAPRLRVNNGYKIWHYTGSILHKYDVPSNAELWQVSWQPFLDGIFPAKTITYQAVPSEVPNEEPKVATAYRPPALRNKPITNSKLHEEEPPQNMKPQSGNDKPLSKTALKNQRKHEAKKAAKQEARSDKSPDLAPTPAPQSTPRNTVSQSISGDPEIDKKIKNLKKKLKAIEQLKEQAATGKQLEKNQLEKIQKETALLQELEDLELGI [EIF2A]”, for which the “solubility in G1/S (log2)” value in the data set on HeLa Kyoto [1] was determined as 0.224. The melting temperature with HeLa Kyoto [2] (cell cycle stage: G1/S) is 52.1 °C; in the data set with HeLa Kyoto [2] (cell cycle stage: mitosis) it was 51.7 °C. Further, in the data set on HeLa Kyoto [3], the “solubility change mitosis (log2)” value is -0.121. Moreover, the thermal stability score is -0.606 in the data set on HeLa Kyoto [4] (setting [5]) and -1.22 with HeLa Kyoto [4] (cell cycle stage: mitosis).
“MGGLFSRWRTKPSTVEVLESIDKEIQALEEFREKNQRLQKLWVGRLILYSSVLYLFTCLIVYLWYLPDEFTARLAMTLPFFAFPLIIWSIRTVIIFFFSKRTERNNEALDDLKSQRKKILEEVMEKETYKTAKLILERFDPDSKKAKECEPPSAGAAVTARPGQEIRQRTAAQRNLSPTPASPNQGPPPQVPVSPGPPKDSSAPGGPPERTVTPALSSNVLPRHLGSPATSVPGMGLHPPGPPLARPILPRERGALDRIVEYLVGDGPQNRYALICQQCFSHNGMALKEEFEYIAFRCAYCFFLNPARKTRPQAPRLPEFSFEKRQVVEGSSSVGPLPSGSVLSSDNQFNEESLEHDVLDDNTEQTDDKIPATEQTNQVIEKASDSEEPEEKQETENEEASVIETNSTVPGADSIPDPELSGESLTAE”: in the data set on HeLa Kyoto [1], the “solubility in G1/S (log2)” value is -0.311. In addition, the results for the melting temperature in the data set on HeLa Kyoto [2] (cell cycle stage: G1/S) and in the data set on HeLa Kyoto [2] (cell cycle stage: mitosis) were 55 °C and 56.9 °C, respectively. Besides, the “solubility change mitosis (log2)” value in the data set on HeLa Kyoto [3] is -0.0648. Besides, the thermal stability score is -1.47 in the data set with HeLa Kyoto [4] (setting [5]) and -0.475 with HeLa Kyoto [4] (cell cycle stage: mitosis).
For the sequence “MNMTQARVLVAAVVGLVAVLLYASIHKIEEGHLAVYYRGGALLTSPSGPGYHIMLPFITTFRSVQTTLQTDEVKNVPCGTSGGVMIYIDRIEVVNMLAPYAVFDIVRNYTADYDKTLIFNKIHHELNQFCSAHTLQEVYIELFDQIDENLKQALQKDLNLMAPGLTIQAVRVTKPKIPEAIRRNFELMEAEKTKLLIAAQKQKVVEKEAETERKKAVIEAEKIAQVAKIRFQQKVMEKETEKRISEIEDAAFLAREKAKADAEYYAAHKYATSNKHKLTPEYLELKKYQAIASNSKIYFGSNIPNMFVDSSCALKYSDIRTGRESSLPSKEALEPSGENVIQNKESTG [ERLIN1]”, the “solubility in G1/S (log2)” value in the data set with HeLa Kyoto [1] stood at 0.24. The melting temperature in the data set with HeLa Kyoto [2] (cell cycle stage: G1/S) was 52.7 °C; in the data set with HeLa Kyoto [2] (cell cycle stage: mitosis) it was 53.1 °C. In addition, in the data set on HeLa Kyoto [3], the “solubility change mitosis (log2)” value was -0.0762. Further, the thermal stability score was 1.82 in the data set with HeLa Kyoto [4] (setting [5]) and 4.38 with HeLa Kyoto [4] (cell cycle stage: mitosis).
Regarding “MAAQSAPKVVLKSTTKMSLNERFTNMLKNKQPTPVNIRASMQQQQQLASARNRRLAQQMENRPSVQAALKLKQSLKQRLGKSNIQARLGRPIGALARGAIGGRGLPIIQRGLPRGGLRGGRATRTLLRGGMSLRGQNLLRGGRAVAPRMGLRRGGVRGRGGPGRGGLGRGAMGRGGIGGRGRGMIGRGRGGFGGRGRGRGRGRGALARPVLTKEQLDNQLDAYMSKTKGHLDAELDAYMAQTDPETND [CHTOP]”, the “solubility in G1/S (log2)” value with HeLa Kyoto [1] is -0.246. Moreover, the melting temperature is 51 °C with HeLa Kyoto [2] (cell cycle stage: G1/S) and 51.7 °C in the data set with HeLa Kyoto [2] (cell cycle stage: mitosis). Moreover, the “solubility change mitosis (log2)” value with HeLa Kyoto [3] was 0.761. The figures for the thermal stability score in the data set on HeLa Kyoto [4] (setting [5]) and in the data set on HeLa Kyoto [4] (cell cycle stage: mitosis) were -2.91 and -0.126, respectively.
